Measurements: IntAct's records for PubMed 19264842

B1: 1-phosphatidylinositol 4,5-bisphosphate phosphodiesterase gamma-1 (Homo sapiens), P19174 (parent)
chain: MAGAASPCANGCGPGAPSDAEVLHLCRSLEVGTVMTLFYSKKSQRPERKTFQVKLETRQITWSRGADKIEGAIDIREIKEIRPGKTSRDFDRYQEDPAFRPDQSHCFVILYGMEFRLKTLSLQATSEDEVNMWIKGLTWLMEDTLQAPTPLQIERWLRKQFYSVDRNREDRISAKDLKNMLSQVNYRVPNMRFLRERLTDLEQRSGDITYGQFAQLYRSLMYSAQKTMDLPFLEASTLRAGERPELCRVSLPEFQQFLLDYQGELWAVDRLQVQEFMLSFLRDPLREIEEPYFFLDEFVTFLFSKENSVWNSQLDAVCPDTMNNPLSHYWISSSHNTYLTGDQFSSESSLEAYARCLRMGCRCIELDCWDGPDGMPVIYHGHTLTTKIKFSDVLHTIKEHAFVASEYPVILSIEDHCSIAQQRNMAQYFKKVLGDTLLTKPVEISADGLPSPNQLKRKILIKHKKLAEGSAYEEVPTSMMYSENDISNSIKNGILYLEDPVNHEWYPHYFVLTSSKIYYSEETSSDQGNEDEEEPKEVSSSTELHSNEKWFHGKLGAGRDGRHIAERLLTEYCIETGAPDGSFLVRESETFVGDYTLSFWRNGKVQHCRIHSRQDAGTPKFFLTDNLVFDSLYDLITHYQQVPLRCNEFEMRLSEPVPQTNAHESKEWYHASLTRAQAEHMLMRVPRDGAFLVRKRNEPNSYAISFRAEGKIKHCRVQQEGQTVMLGNSEFDSLVDLISYYEKHPLYRKMKLRYPINEEALEKIGTAEPDYGALYEGRNPGFYVEANPMPTFKCAVKALFDYKAQREDELTFIKSAIIQNVEKQEGGWWRGDYGGKKQLWFPSNYVEEMVNPVALEPEREHLDENSPLGDLLRGVLDVPACQIAIRPEGKNNRLFVFSISMASVAHWSLDVAADSQEELQDWVKKIREVAQTADARLTEGKIMERRKKIALELSELVVYCRPVPFDEEKIGTERACYRDMSSFPETKAEKYVNKAKGKKFLQYNRLQLSRIYPKGQRLDSSNYDPLPMWICGSQLVALNFQTPDKPMQMNQALFMTGRHCGYVLQPSTMRDEAFDPFDKSSLRGLEPCAISIEVLGARHLPKNGRGIVCPFVEIEVAGAEYDSTKQKTEFVVDNGLNPVWPAKPFHFQISNPEFAFLRFVVYEEDMFSDQNFLAQATFPVKGLKTGYRAVPLKNNYSEDLELASLLIKIDIFPAKENGDLSPFSGTSLRERGSDASGQLFHGRAREGSFESRYQQPFEDFRISQEHLADHFDSRERRAPRRTRVNGDNRL

Variants of: B1
Conditions: with rac1_human RAC1, P63000

Row | Variant | effect of a mutation on the interaction
1 | P842L | disrupting interaction
